Experimental data as given in patent US20020147999A1.

What was measured:
Experiment in all cases: cell-based or functional assay
[1] = biological target: p-NF-H (phosphorylated neurofilament protein of high molecular weight), mouse, endogenous in Neuro-2a cells (mouse) (UniProt P19246)
[2] = biological target: p-tau (phosphorylated microtubule-associated protein tau), mouse, endogenous in Neuro-2a cells and mouse brain (mouse) (UniProt P10637)
[3] = biological target: apoE cleavage enzyme (chymotrypsin-like serine protease; in mouse brain lysate or roughly/partially purified)

p-tau (phosphorylated microtubule-associated protein tau), mouse, endogenous in Neuro-2a cells and mouse brain (mouse), sequence (P10637 other isoform, or with tags, fused parts or gaps limits assumed): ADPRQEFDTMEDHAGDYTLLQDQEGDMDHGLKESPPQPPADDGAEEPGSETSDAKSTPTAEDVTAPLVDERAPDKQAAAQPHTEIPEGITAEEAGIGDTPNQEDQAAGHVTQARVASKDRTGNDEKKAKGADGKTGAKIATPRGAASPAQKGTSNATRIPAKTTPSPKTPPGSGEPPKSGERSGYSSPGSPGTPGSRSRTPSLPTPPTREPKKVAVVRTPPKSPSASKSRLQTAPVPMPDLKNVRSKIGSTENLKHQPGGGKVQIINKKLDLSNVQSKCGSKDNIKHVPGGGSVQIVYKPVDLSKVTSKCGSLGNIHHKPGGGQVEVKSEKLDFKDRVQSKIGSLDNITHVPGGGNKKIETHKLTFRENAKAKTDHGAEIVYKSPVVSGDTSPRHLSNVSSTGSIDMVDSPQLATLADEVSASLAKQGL
p-NF-H (phosphorylated neurofilament protein of high molecular weight), mouse, endogenous in Neuro-2a cells (mouse), sequence (P19246 whole entry): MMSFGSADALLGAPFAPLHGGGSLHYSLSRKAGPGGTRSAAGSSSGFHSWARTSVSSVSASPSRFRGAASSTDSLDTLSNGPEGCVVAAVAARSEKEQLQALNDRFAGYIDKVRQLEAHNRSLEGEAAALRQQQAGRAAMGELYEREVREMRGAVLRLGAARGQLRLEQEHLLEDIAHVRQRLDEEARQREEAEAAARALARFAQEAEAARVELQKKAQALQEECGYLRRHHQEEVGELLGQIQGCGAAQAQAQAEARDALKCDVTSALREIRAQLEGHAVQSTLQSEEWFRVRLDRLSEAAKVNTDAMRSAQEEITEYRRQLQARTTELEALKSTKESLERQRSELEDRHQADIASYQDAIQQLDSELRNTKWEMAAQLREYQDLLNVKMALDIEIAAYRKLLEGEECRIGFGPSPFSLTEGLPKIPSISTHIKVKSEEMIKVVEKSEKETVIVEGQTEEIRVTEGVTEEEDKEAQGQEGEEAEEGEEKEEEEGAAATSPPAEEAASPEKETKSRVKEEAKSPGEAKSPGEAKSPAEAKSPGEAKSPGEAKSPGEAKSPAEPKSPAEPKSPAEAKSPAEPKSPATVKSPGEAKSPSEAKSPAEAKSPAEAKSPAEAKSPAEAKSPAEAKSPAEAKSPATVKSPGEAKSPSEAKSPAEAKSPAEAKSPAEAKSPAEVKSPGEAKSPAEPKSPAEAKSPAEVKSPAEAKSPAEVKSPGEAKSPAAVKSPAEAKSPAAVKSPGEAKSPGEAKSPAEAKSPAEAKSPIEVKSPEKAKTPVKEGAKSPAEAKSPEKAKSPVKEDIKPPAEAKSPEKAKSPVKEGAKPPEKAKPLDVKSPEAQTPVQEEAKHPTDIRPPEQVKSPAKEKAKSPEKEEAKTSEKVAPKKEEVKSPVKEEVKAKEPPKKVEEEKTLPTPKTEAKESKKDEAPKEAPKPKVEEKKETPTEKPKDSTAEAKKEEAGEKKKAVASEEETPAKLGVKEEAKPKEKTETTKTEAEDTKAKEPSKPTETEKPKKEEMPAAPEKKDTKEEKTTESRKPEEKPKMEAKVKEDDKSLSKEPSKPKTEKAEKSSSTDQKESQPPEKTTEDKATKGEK

Substance | transfected cells displaying the intracellular filamentous inclusions [1] | transfected cells displaying the intracellular filamentous inclusions [2] | inhibition of apoE cleavage enzyme activity (chromogenic assay, 1 mM Ala-Ala-Pro-Phe-p-nitroanilide; 7 µM apoE4) [3]
apoE4(Δ272-299), expressed in transfected cells (pFLAG-CMV-3 vector, secretory pathway, N-terminal FLAG) (from UniProt P02649 19-289) | 78% | 78% | 
apoE3(Δ272-299), expressed in transfected cells (pFLAG-CMV-3 vector, secretory pathway, N-terminal FLAG) (from UniProt P02649 19-289) | 32% | 32% | 
purified human apoE4 (full-length) (from UniProt P02649 19-317) |  |  | 89%
